Measurements as given in PMC6737238.

Key:
Test in all cases: EMSA
Details in all cases: EMSA: 0.4 nM biotinylated probe, 10 mM Tris-HCl pH 7.5, 1 mM DTT, 10 mM MgCl2, 400 mM KCl, 0.05% NP-40, 70C 10 min; 5% PAGE, 0.5x TBE
[1] = target: T1, Tar (TK0271 protein) (Thermococcus kodakarensis KOD1) (UniProt Q5JFW7)
T1 sequence: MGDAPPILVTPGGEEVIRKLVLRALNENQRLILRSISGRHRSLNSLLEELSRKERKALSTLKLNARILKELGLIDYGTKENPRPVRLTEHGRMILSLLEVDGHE

[2] = target: T2, TK0271 protein (IVT) (Thermococcus kodakarensis KOD1) (UniProt Q5JFW7)
T2 sequence: T1 sequence

[3] = target: T3, TK0063 protein (Thermococcus kodakarensis KOD1) (UniProt Q5JEG2)
T3 sequence: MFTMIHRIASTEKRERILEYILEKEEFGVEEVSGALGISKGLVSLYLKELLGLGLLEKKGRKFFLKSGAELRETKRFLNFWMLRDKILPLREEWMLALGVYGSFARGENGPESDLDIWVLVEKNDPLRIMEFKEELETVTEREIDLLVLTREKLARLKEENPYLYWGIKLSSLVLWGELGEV

[4] = target: T4, TK1881 protein (Thermococcus kodakarensis KOD1) (UniProt Q5JEN6)
T4 sequence: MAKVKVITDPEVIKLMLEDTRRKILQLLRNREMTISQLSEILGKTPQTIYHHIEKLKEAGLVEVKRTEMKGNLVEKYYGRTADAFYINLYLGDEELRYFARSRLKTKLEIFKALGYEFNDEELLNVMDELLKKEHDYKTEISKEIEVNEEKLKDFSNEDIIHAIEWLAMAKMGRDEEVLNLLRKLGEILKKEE

[5] = target: T5, TK1339 protein (Thermococcus kodakarensis KOD1) (UniProt Q5JGU9)
T5 sequence: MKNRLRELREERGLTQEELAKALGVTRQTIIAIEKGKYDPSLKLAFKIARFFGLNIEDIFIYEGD

[6] = target: T6, TK1272 protein (Thermococcus kodakarensis KOD1) (UniProt Q5JGN9)
T6 sequence: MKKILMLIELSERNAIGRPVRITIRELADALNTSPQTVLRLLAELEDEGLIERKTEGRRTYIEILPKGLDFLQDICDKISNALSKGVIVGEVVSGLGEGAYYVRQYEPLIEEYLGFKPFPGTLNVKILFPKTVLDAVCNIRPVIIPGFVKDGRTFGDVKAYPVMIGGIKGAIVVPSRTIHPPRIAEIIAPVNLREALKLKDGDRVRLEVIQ

[7] = target: T7, TK2190 protein (Thermococcus kodakarensis KOD1) (UniProt Q5JHK1)
T7 sequence: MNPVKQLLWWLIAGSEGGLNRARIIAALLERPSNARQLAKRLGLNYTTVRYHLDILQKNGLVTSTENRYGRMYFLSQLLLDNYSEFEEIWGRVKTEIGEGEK

[8] = target: T8, TK0169 protein (Thermococcus kodakarensis KOD1) (UniProt Q5JFL2)
T8 sequence: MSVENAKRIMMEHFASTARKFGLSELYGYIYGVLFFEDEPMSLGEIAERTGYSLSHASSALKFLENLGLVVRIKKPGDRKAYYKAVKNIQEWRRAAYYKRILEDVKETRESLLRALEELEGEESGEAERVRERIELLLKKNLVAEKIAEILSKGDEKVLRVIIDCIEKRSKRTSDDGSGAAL

[9] = target: T9, TK1489 protein (Thermococcus kodakarensis KOD1) (UniProt Q5JJD9)
T9 sequence: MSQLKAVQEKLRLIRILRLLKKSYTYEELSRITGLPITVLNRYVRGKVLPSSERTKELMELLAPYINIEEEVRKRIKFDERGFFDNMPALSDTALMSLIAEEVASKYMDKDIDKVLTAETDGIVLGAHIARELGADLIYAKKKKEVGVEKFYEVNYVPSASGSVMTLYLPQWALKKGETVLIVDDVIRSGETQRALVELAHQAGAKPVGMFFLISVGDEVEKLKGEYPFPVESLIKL

[10] = target: T10, TK1955 protein (Thermococcus kodakarensis KOD1) (UniProt Q5JDN7)
T10 sequence: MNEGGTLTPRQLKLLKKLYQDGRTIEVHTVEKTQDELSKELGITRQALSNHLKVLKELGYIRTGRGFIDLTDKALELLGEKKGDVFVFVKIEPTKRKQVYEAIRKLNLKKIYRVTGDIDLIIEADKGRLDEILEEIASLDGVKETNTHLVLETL

[11] = target: T11, TK2229 protein (Thermococcus kodakarensis KOD1) (UniProt Q5JHP9)
T11 sequence: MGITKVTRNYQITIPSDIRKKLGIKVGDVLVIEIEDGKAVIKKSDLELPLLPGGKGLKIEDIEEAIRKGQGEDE

[12] = target: T12, TK1210 protein (Thermococcus kodakarensis KOD1) (UniProt Q5JGG7)
T12 sequence: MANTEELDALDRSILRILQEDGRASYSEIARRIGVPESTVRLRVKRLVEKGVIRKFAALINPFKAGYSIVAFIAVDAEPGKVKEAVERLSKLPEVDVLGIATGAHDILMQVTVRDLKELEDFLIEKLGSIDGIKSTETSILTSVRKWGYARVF

[13] = target: T13, TK1227 protein (IVT) (Thermococcus kodakarensis KOD1) (UniProt Q5JGI5)
T13 sequence: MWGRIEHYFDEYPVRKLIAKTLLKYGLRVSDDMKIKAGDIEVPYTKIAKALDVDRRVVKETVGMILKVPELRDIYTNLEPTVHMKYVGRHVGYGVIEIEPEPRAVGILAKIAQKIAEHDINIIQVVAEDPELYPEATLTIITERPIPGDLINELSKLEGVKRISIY

[14] = target: T14, TK0142 protein (Thermococcus kodakarensis KOD1) (UniProt Q5JFH4)
T14 sequence: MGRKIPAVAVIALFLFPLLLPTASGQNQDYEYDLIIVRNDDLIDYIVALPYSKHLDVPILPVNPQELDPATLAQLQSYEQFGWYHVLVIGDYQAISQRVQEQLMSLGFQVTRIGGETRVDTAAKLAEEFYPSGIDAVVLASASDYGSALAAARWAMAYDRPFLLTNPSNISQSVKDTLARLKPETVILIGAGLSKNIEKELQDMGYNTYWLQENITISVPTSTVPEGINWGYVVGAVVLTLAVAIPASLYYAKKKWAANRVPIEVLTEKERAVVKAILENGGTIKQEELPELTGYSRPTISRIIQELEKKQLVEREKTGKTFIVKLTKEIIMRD

[15] = target: T15, TK0888 protein (Thermococcus kodakarensis KOD1) (UniProt Q5JI32)
T15 sequence: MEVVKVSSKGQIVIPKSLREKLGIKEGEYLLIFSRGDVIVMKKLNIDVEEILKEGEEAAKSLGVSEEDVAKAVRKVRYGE

[16] = target: T16, TkTrpY (TK1227 protein) (Thermococcus kodakarensis KOD1) (UniProt Q5JGI5)
T16 sequence: T13 sequence

Substance: TGCGGGCCATCATCATCACCCAATACCTTTGATGTGGGTAAAACATGGGGAGGTTATATACTTTATGTCCCTCAGGGACTTGGCAATGAAACTTTTAAGAATTTCGTCCGATTCTAGAATCAAACTGTAAAAGACCCATATTTTACAATAGCAGCCAGGAAAGAATATTAAACAGAAAATAAGGGATTAAATGCCGTTATCCCCA (double strand) [TK1899 (radA) promoter]
- binding [1]: binds more weakly

Substance: GGACGCCTGTTTGTCAAATCGACAAAAATACGCCAGTTTTCACACTGATTTTTAACAGATTGATGAGATGGACGTCCTTTTTTGGGAATTGGACAGGCAAACCTGGCGAATAGTTTAAATAGGGTTGCTGATTCATCCGTCTCCGGTGATCGGTGATGTCCCGCCAATTTATGAAGTCTTCAAACCAGGTGATGTCCCGCCAATGGGTGATGC (double strand) [aro promoter (TK0271)]
- Kd [1]: binds

Substance: GCTACTTCCATCCTCCTCTGGAGAAGCTGGAGAATTTCCCGGTCAATCTCGTCTATCCTTCTCCTCAGAATGGCAAGTTCTACAAGATCAGGACTCGATATTGGCGGGACATCACCGTCACCGTTTTGAGCTTGAAGTTCGAAGATTTAACCTTTTGGACAGGTTCACCTAACCATCCCCTCCCAGGCCCTCCTCCTCAGGAG (double strand) [tyr-phe promoter (TK0261)]
- Kd [1]: binds

Substance: GACTTCGGCTTTCTGATGGTCGGAAGGGACGTGGAAAATGCGAACGAAGCGATAAAAATGTTTTTGGAGGAGGTTAAACGAGGGCCTTAACGCCCTCTCGGTCTTTTTAGCTACTCCCTTGGACACCTCAGCATGTCCAAAGCCTTATATCCCAACTCCCCCTTTTGACACCGGTGAGTTCAAATGGGTGATGGTTTTTGGATTAAGC (double strand) [trp promoter (TK0252)]
- binding [2]: binds
- binding [3]: binds
- binding [4]: binds
- binding [5]: binds
- binding [6]: binds
- binding [7]: binds
- binding [8]: binds
- binding [9]: binds
- binding [10]: binds
- binding [11]: binds
- binding [12]: binds
- binding [13]: binds
- binding [14]: binds
- binding [15]: binds
- Kd [1]: 5 nM
- binding [1]: binds

Substance: trp promoter (TK0252)
- Kd [1]: 5 nM

Substance: GACCACCCGCTCAGAAAAGGACGTCGTAAGGACAAGTACACCGTTATTCTCTACCAGGCAACCGTACGAACTATTCAAAGTTCACCCTTTGAAGAAAGGCAAACATTTTTGTTTAACAAAAACACTTTTGTTAGCGCAAACTATTTAAACAACCGTTGTATATCACAGATGGTGATATATATGGTTGAGC (double strand) [TK0705 (GAPN) promoter]
- binding [16]: binds more weakly
